Reference: US20180155451A1 (published 2018)

molecular target: T1, FcγRIa extracellular domain with C-terminal His tag (human, UniProt P12314 16-292); test: SPR Biacore, relative FcγRIa binding vs GpH7-A5/GpH7-B3/GpL16-k0
T1 construct: extracellular domain; also called FcgRI; CD64; not shown: His tag at the C terminus
T1 sequence (P12314 16-292): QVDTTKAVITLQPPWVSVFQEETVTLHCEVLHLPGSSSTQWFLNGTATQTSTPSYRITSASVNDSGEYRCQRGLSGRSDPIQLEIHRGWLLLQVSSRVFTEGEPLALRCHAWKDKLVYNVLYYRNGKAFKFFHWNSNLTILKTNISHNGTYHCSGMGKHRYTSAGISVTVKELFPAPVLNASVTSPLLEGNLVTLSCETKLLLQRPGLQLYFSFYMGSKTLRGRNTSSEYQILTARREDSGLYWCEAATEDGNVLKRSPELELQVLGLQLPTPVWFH

Binder | He/Con_1a
GpH7-A5/GpH7-B3 variant P329_02A/GpL16-k0 (antibody, human IgG1, kappa, mutation in one H chain only; also called He Ab P329_02A; P329A) heavy 1: not shown heavy 2: not shown light: DIVMTQSPLSLPVTPGEPASISCQASESLVHSNRNTYLHWYLQKPGQSPQLLIYKVSNRFSGVPDRFSGSGSGTDFTLKISRVEAEDVGVYYCSQNTHVPPTFGQGTKVEIERTVAAPSVFIFPPSDEQLKSGTASVVCLLNNFYPREAKVQWKVDNALQSGNSQESVTEQDSKDSTYSLSSTLTLSKADYEKHKVYACEVTHQGLSSPVTKSFNRGEC | 102 % of HeCon Ab (=100)
GpH7-A5/GpH7-B3 variant P271_14T/GpL16-k0 (antibody, human IgG1, kappa, mutation in one H chain only; also called He Ab P271_14T; P271T) heavy 1: not shown heavy 2: not shown light: DIVMTQSPLSLPVTPGEPASISCQASESLVHSNRNTYLHWYLQKPGQSPQLLIYKVSNRFSGVPDRFSGSGSGTDFTLKISRVEAEDVGVYYCSQNTHVPPTFGQGTKVEIERTVAAPSVFIFPPSDEQLKSGTASVVCLLNNFYPREAKVQWKVDNALQSGNSQESVTEQDSKDSTYSLSSTLTLSKADYEKHKVYACEVTHQGLSSPVTKSFNRGEC | 102 % of HeCon Ab (=100)
GpH7-A5/GpH7-B3 variant P329_01G/GpL16-k0 (antibody, human IgG1, kappa, mutation in one H chain only; also called He Ab P329_01G; P329G) heavy 1: not shown heavy 2: not shown light: DIVMTQSPLSLPVTPGEPASISCQASESLVHSNRNTYLHWYLQKPGQSPQLLIYKVSNRFSGVPDRFSGSGSGTDFTLKISRVEAEDVGVYYCSQNTHVPPTFGQGTKVEIERTVAAPSVFIFPPSDEQLKSGTASVVCLLNNFYPREAKVQWKVDNALQSGNSQESVTEQDSKDSTYSLSSTLTLSKADYEKHKVYACEVTHQGLSSPVTKSFNRGEC | 101 % of HeCon Ab (=100)
GpH7-A5/GpH7-B3 variant P271_15Y/GpL16-k0 (antibody, human IgG1, kappa, mutation in one H chain only; also called He Ab P271_15Y; P271Y) heavy 1: not shown heavy 2: not shown light: DIVMTQSPLSLPVTPGEPASISCQASESLVHSNRNTYLHWYLQKPGQSPQLLIYKVSNRFSGVPDRFSGSGSGTDFTLKISRVEAEDVGVYYCSQNTHVPPTFGQGTKVEIERTVAAPSVFIFPPSDEQLKSGTASVVCLLNNFYPREAKVQWKVDNALQSGNSQESVTEQDSKDSTYSLSSTLTLSKADYEKHKVYACEVTHQGLSSPVTKSFNRGEC | 103 % of HeCon Ab (=100)
GpH7-A5/GpH7-B3 variant P271_16H/GpL16-k0 (antibody, human IgG1, kappa, mutation in one H chain only; also called He Ab P271_16H; P271H) heavy 1: not shown heavy 2: not shown light: DIVMTQSPLSLPVTPGEPASISCQASESLVHSNRNTYLHWYLQKPGQSPQLLIYKVSNRFSGVPDRFSGSGSGTDFTLKISRVEAEDVGVYYCSQNTHVPPTFGQGTKVEIERTVAAPSVFIFPPSDEQLKSGTASVVCLLNNFYPREAKVQWKVDNALQSGNSQESVTEQDSKDSTYSLSSTLTLSKADYEKHKVYACEVTHQGLSSPVTKSFNRGEC | 102 % of HeCon Ab (=100)

Second part, the binder after the results:

He/Con_1a | Binder
105 % of HeCon Ab (=100) | GpH7-A5/GpH7-B3 variant Q295_08L/GpL16-k0 (antibody, human IgG1, kappa, mutation in one H chain only; also called He Ab Q295_08L; Q295L) heavy 1: not shown heavy 2: not shown light: DIVMTQSPLSLPVTPGEPASISCQASESLVHSNRNTYLHWYLQKPGQSPQLLIYKVSNRFSGVPDRFSGSGSGTDFTLKISRVEAEDVGVYYCSQNTHVPPTFGQGTKVEIERTVAAPSVFIFPPSDEQLKSGTASVVCLLNNFYPREAKVQWKVDNALQSGNSQESVTEQDSKDSTYSLSSTLTLSKADYEKHKVYACEVTHQGLSSPVTKSFNRGEC
102 % of HeCon Ab (=100) | GpH7-A5/GpH7-B3 variant Q295_15Y/GpL16-k0 (antibody, human IgG1, kappa, mutation in one H chain only; also called He Ab Q295_15Y; Q295Y) heavy 1: not shown heavy 2: not shown light: DIVMTQSPLSLPVTPGEPASISCQASESLVHSNRNTYLHWYLQKPGQSPQLLIYKVSNRFSGVPDRFSGSGSGTDFTLKISRVEAEDVGVYYCSQNTHVPPTFGQGTKVEIERTVAAPSVFIFPPSDEQLKSGTASVVCLLNNFYPREAKVQWKVDNALQSGNSQESVTEQDSKDSTYSLSSTLTLSKADYEKHKVYACEVTHQGLSSPVTKSFNRGEC
102 % of HeCon Ab (=100) | GpH7-A5/GpH7-B3 variant Q295_13S/GpL16-k0 (antibody, human IgG1, kappa, mutation in one H chain only; also called He Ab Q295_13S; Q295S) heavy 1: not shown heavy 2: not shown light: DIVMTQSPLSLPVTPGEPASISCQASESLVHSNRNTYLHWYLQKPGQSPQLLIYKVSNRFSGVPDRFSGSGSGTDFTLKISRVEAEDVGVYYCSQNTHVPPTFGQGTKVEIERTVAAPSVFIFPPSDEQLKSGTASVVCLLNNFYPREAKVQWKVDNALQSGNSQESVTEQDSKDSTYSLSSTLTLSKADYEKHKVYACEVTHQGLSSPVTKSFNRGEC
102 % of HeCon Ab (=100) | GpH7-A5/GpH7-B3 variant Q295_04F/GpL16-k0 (antibody, human IgG1, kappa, mutation in one H chain only; also called He Ab Q295_04F; Q295F) heavy 1: not shown heavy 2: not shown light: DIVMTQSPLSLPVTPGEPASISCQASESLVHSNRNTYLHWYLQKPGQSPQLLIYKVSNRFSGVPDRFSGSGSGTDFTLKISRVEAEDVGVYYCSQNTHVPPTFGQGTKVEIERTVAAPSVFIFPPSDEQLKSGTASVVCLLNNFYPREAKVQWKVDNALQSGNSQESVTEQDSKDSTYSLSSTLTLSKADYEKHKVYACEVTHQGLSSPVTKSFNRGEC
103 % of HeCon Ab (=100) | GpH7-A5/GpH7-B3 variant Q295_14T/GpL16-k0 (antibody, human IgG1, kappa, mutation in one H chain only; also called He Ab Q295_14T; Q295T) heavy 1: not shown heavy 2: not shown light: DIVMTQSPLSLPVTPGEPASISCQASESLVHSNRNTYLHWYLQKPGQSPQLLIYKVSNRFSGVPDRFSGSGSGTDFTLKISRVEAEDVGVYYCSQNTHVPPTFGQGTKVEIERTVAAPSVFIFPPSDEQLKSGTASVVCLLNNFYPREAKVQWKVDNALQSGNSQESVTEQDSKDSTYSLSSTLTLSKADYEKHKVYACEVTHQGLSSPVTKSFNRGEC
100 % of HeCon Ab (=100) | GpH7-A5/GpH7-B3 variant Q295_09D/GpL16-k0 (antibody, human IgG1, kappa, mutation in one H chain only; also called He Ab Q295_09D; Q295D) heavy 1: not shown heavy 2: not shown light: DIVMTQSPLSLPVTPGEPASISCQASESLVHSNRNTYLHWYLQKPGQSPQLLIYKVSNRFSGVPDRFSGSGSGTDFTLKISRVEAEDVGVYYCSQNTHVPPTFGQGTKVEIERTVAAPSVFIFPPSDEQLKSGTASVVCLLNNFYPREAKVQWKVDNALQSGNSQESVTEQDSKDSTYSLSSTLTLSKADYEKHKVYACEVTHQGLSSPVTKSFNRGEC
